The target of test [1] is T1, human FcγRIIb extracellular domain with C-terminal His-tag (human, UniProt P31994 43-217).
T1 construct: also called human FcgRIIb
T1 sequence: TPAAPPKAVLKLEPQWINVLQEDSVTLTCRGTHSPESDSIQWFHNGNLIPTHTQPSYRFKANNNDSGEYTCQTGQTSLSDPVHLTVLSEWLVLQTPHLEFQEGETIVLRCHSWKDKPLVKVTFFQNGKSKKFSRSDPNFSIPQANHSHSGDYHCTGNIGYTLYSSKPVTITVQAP
As to the kind of experiment: SPR, KD(SG1)/KD(variant).

The target in test [2] is T2, human FcγRIIaR extracellular domain with C-terminal His-tag (human, UniProt P12318 34-217).
T2 construct: also called human FcgRIIaR; FcγRIIa (type R)
T2 chain: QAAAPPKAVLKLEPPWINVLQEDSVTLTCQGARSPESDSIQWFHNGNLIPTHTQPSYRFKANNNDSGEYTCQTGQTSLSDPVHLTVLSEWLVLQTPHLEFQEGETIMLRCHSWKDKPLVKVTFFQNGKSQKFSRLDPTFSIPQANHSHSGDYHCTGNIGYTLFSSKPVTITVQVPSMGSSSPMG
As to the kind of experiment: SPR, KD(SG1)/KD(variant).

Test [3] deals with T3, cynomolgus monkey FcγRIIIaS extracellular domain with C-terminal His-tag (cynomolgus monkey, UniProt Q8SPW2 21-206 at identity 1.00)).
T3 construct: also called cyno FcgRIIIaS; cynoFcγRIIIaS
T3 chain: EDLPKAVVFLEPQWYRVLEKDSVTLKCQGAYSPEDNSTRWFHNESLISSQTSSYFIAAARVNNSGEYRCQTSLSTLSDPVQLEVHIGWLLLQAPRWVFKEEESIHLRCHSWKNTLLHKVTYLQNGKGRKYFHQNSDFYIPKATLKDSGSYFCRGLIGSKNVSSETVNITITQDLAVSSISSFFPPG
Description: SPR, KD(SG1)/KD(variant).

Test [4] has as its target T4, human FcγRIIIaV extracellular domain with C-terminal His-tag (human, UniProt P08637 17-208).
T4 construct: also called human FcgRIIIaV
As to the kind of experiment: SPR, KD(SG1)/KD(variant).

The target of test [5] is T5, cynomolgus monkey FcγRIIa2 extracellular domain with C-terminal His-tag (cynomolgus monkey).
T5 construct: also called cyno FcgRIIa2; cynoFcγRIIa2
T5 chain: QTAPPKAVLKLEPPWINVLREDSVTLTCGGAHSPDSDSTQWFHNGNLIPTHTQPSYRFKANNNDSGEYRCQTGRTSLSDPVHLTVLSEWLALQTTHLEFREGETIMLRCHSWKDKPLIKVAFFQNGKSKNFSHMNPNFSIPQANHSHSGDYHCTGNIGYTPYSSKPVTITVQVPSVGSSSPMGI
As to the kind of experiment: SPR, KD(SG1)/KD(variant).

Test [6] concerns the target T3, cynomolgus monkey FcγRIIIaS …. As to the kind of experiment: SPR, antibody captured, FcγR analyte. As to the method: (§1) The kinetic analysis of interactions between these antibodies and FcγR was carried out using BIACORE® T200 or BIACORE® 4000 (GE Healthcare). HBS-EP+ (GE Healthcare) was used as the running buffer, and the measurement temperature was set to 25° C. […] After the measurement, the antibody captured on the chip was washed off by allowing reaction with 10 mM glycine-HCl, pH1.5 and 25 mM NaOH so that the chip was regenerated and used repeatedly. The sensorgrams obtained as measurement results were analyzed by the 1:1 Langmuir binding model using the BIACORE® Evaluation Software to calculate the binding rate constant ka (L/mol/s) and dissociation rate constant kd (1/s), and the dissociation constant KD (mol/L) was calculated from these values. […] Regarding such interactions, KD values were calculated using the following 1:1 binding model described in BIACORE® T100 Software Handbook BR1006-48 Edition AE.

Test [7] has the same target. As to the kind of experiment: SPR, KD(SG1)/KD(variant). As to the method:
as §1

Test [8] has as its target T6, human FcγRIIaH extracellular domain with C-terminal His-tag (human, UniProt P12318 34-217).
T6 construct: also called human FcgRIIaH; FcγRIIa (type H)
T6 sequence: T2 chain with R134H
Description: SPR, antibody captured, FcγR analyte.

For test [9], the target named is T3, cynomolgus monkey FcγRIIIaS …. As to the kind of experiment: SPR, antibody captured, FcγR analyte.
The target in test [10] is T7, human FcγRIIb extracellular domain, C-terminal His-tag (human, UniProt P31994 43-217).
T7 construct: also called FcgRIIb
T7 sequence: T1 sequence
Description: SPR (BIACORE), antibody captured, FcgR analyte, 25 C.

In test [11] the target is T8, cynomolgus monkey FcγRIIIaS extracellular domain, His-tagged (cynomolgus monkey, UniProt Q8SPW2 21-206 at identity 1.00)).
T8 construct: also called cyno FcγRIIIaS; cynoFcγRIIIaS; not shown: C-terminal His-tag
T8 chain: T3 chain
As to the kind of experiment: SPR Biacore, antibody captured, FcgR analyte.

The target of test [12] is T9, human FcγRIIb extracellular domain, His-tagged (human, UniProt P31994 43-217).
T9 construct: also called FcgRIIb (human); not shown: C-terminal His-tag
T9 sequence: T1 sequence
Description: SPR Biacore, KD(SG1)/KD(variant).

The target of test [13] is T9, human FcγRIIb extracellular domain, …. As to the kind of experiment: SPR Biacore, antibody captured, FcgR analyte.
The target in test [14] is T10, human FcγRIIaR extracellular domain, His-tagged (human, UniProt P12318 34-217).
T10 construct: also called human FcγRIIa (type R); FcgRIIaR; not shown: C-terminal His-tag
T10 chain: T2 chain
As to the kind of experiment: SPR Biacore, antibody captured, FcgR analyte.

For test [15], the target named is T11, cynomolgus monkey FcγRIIa2 extracellular domain, His-tagged (cynomolgus monkey).
T11 construct: also called cyno FcγRIIa2; cynoFcgRIIa2; not shown: C-terminal His-tag
T11 chain: T5 chain
Description: SPR Biacore, antibody captured, FcgR analyte.

Test [16] addresses T12, Human latent myostatin (human, UniProt O14793 25-266; O14793 267-375).
T12 construct: Biotinylated in the ELISAs; also called human myostatin latent form
T12 sequence 1: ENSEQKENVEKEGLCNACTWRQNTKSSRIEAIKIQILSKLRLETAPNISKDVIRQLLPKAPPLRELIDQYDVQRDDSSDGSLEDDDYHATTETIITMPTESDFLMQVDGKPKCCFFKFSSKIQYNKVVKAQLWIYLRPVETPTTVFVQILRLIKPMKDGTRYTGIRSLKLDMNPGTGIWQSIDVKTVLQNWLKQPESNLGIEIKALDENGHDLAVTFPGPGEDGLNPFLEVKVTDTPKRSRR
T12 sequence 2: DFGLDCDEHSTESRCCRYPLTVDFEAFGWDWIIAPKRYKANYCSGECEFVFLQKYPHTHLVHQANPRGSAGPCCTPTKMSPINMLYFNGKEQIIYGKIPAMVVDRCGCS
As to the kind of experiment: SPR affinity condition (capture 18.5 RU), pH7.4, 37C. As to the method:
(§2) The kinetic parameters of anti-latent myostatin antibodies against human, cynomolgus monkey (cyno), and mouse latent myostatin were assessed at 37° C. at pH7.4 using a BIACORE® T200 instrument (GE Healthcare). ProA/G (Pierce) was immobilized onto all flow cells of a CM4 chip using amine coupling kit (GE Healthcare). Anti-latent myostatin antibody and analytes were prepared in ACES pH7.4 (20 mM ACES, 150 mM NaCl, 1.2 mM CaCl₂), 0.05% TWEEN® 20, 0.005% NaN3). […] The sensor surface was regenerated with 25 mM NaOH. Kinetic parameters were determined by processing and fitting the data to a 1:1 binding model using BIACORE® T200 Evaluation software, version 2.0 (GE Healthcare).
(§3) All experimental settings were the same as in Example 7, except that measurements were also performed in ACES pH5.8 buffer in addition to ACES pH7.4 condition. Some antibodies were only measured against human latent myostatin. Antibody capture level was aimed at 185 RU and 18.5 RU, for avidity and affinity assay, respectively. Kinetic parameters were determined using 1:1 Binding fitting using BIACORE® T200 Evaluation software, version 2.0 (GE Healthcare).

Test [17] concerns the target T12, Human latent myostatin. As to the kind of experiment: SPR avidity condition (capture 185 RU), pH5.8, 37C; pH 5.8. As to the method:
as §2, §3

Where a chain is given by its changes, count along the chain named. Where two headings read alike, the source gives them in different places.

The values that follow come from patent US20250076311A1 (Chugai, published 2025).

T4 sequence (P08637 17-208 F176V): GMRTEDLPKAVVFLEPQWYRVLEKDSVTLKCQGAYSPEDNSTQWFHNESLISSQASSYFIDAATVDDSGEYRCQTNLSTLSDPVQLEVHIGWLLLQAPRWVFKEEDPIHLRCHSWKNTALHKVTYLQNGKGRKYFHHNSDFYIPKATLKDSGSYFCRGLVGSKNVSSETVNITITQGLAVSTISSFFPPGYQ

B1: MS1032LO06-MY351 (antibody, human IgG1, kappa)
heavy: QVTLKESGPVLVKPTETLTLTCTVSGIDLSHDDISWVRQAPGKGLEWVGIISYAGSTYYASWAKGRLTISKDTSKNQVVLTMTNMDPVDTATYYCARGVPAYSHGGDLWGQGTLVTVSSASTKGPSVFPLAPSSKSTSGGTAALGCLVKDYFPEPVTVSWNSGALTSGVHTFPAVLQSSGLYSLSSVVTVPSSSLGTQTYICNVNHKPSNTKVDKKVEPKSCDKTHTCPPCPAPELLNGPSVFLFPPKPKDTLMISRTPEVTCVVVDVSDEDPEVKFNWYVDGVEVHNAKTKPREEQYNSTYRVVSVLTVLHRDWLNGKEYKCKVSNKALPKPIEKTISKAKGQPREPQVYTLPPSREEMTKNQVSLTCLVKGFYPSDIAVEWESNGQPENNYKTTPPVLDSDGSFFLYSKLTVKKSRWQQGNVFSCSVMHEALHNHYTQKSLSLSP
light: DIVMTQSPATLSLSPGERATLSCTSSQSVYHANWLSWFQQKPGQPPKLLIYWASTLAYGVPSRFSGSGSGTDFTLTISSLQPEDAATYYCAGGYGGGRYAFGQGTKVEIKRTVAAPSVFIFPPSDEQLKSGTASVVCLLNNFYPREAKVQWKVDNALQSGNSQESVTEQDSKDSTYSLSSTLTLSKADYEKHKVYACEVTHQGLSSPVTKSFNRGEC
notes: also called M103205H795-MY351; copies: 2 + 2
Turning to B1, the “KD fold (SG1 = 1)” value in test [1] was determined as 4.7 fold; in test [2] it was 0.8 fold; in [3], 0.07 fold; in test [4] it was 0.03 fold; in test [5] it was 3.8 fold; in [7], 0.07 fold. Moreover, the Kd in [6] worked out at 5.2 µM; in test [8], 0.012 µM; in test [9] it was 4.1 µM.

B2: MS103240H795-SG1/M103202L1045-SK1 (antibody, human IgG1, kappa)
heavy: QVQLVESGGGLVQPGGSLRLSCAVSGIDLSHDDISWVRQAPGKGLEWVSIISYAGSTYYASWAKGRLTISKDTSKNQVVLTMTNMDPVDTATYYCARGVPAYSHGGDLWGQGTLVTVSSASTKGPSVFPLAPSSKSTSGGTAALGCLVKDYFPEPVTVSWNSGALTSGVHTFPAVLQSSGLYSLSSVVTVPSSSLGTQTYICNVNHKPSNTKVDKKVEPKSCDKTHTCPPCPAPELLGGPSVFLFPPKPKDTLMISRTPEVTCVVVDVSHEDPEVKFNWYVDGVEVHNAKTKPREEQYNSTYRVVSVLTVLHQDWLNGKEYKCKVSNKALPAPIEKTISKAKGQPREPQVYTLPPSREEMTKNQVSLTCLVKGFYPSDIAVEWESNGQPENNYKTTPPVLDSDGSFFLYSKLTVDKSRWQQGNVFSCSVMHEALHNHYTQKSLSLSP
light: B1 light with S25T, A32E
notes: Parent of the Fc variants; anti-latent myostatin variable region, human IgG1-type constant region SG1; also called MS1032LO19-SG1; copies: 2 + 2
Regarding B2, binding in test [10] was characterised by a dissociation constant (Kd) of 5.8 µM.

B3: M103205H795-MY001/M103202L889-SK1 (antibody, human IgG1, kappa, name in EU numbering)
heavy: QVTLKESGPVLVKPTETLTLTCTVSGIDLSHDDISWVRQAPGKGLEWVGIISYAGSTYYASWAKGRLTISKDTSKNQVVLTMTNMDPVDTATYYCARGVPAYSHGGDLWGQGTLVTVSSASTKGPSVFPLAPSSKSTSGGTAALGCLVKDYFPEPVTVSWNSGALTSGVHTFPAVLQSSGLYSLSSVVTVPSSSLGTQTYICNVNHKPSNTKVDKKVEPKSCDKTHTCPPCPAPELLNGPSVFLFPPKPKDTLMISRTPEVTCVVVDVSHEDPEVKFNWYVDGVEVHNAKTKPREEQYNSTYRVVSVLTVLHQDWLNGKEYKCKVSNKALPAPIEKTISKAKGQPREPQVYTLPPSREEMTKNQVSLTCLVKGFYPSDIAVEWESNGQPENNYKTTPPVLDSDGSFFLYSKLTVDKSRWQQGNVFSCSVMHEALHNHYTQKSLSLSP
light: B1 light
notes: Substitution introduced into M103205H795-SG1; EU numbering
Turning to B3, the affinity in [11], expressed as Kd, was 12 µM. Also, the “KD fold (SG1 = 1)” value in test [12] was determined as 6.6 fold.

B4: M103205H795-MY074/M103202L889-SK1 (antibody, human IgG1, kappa, name in EU numbering)
heavy: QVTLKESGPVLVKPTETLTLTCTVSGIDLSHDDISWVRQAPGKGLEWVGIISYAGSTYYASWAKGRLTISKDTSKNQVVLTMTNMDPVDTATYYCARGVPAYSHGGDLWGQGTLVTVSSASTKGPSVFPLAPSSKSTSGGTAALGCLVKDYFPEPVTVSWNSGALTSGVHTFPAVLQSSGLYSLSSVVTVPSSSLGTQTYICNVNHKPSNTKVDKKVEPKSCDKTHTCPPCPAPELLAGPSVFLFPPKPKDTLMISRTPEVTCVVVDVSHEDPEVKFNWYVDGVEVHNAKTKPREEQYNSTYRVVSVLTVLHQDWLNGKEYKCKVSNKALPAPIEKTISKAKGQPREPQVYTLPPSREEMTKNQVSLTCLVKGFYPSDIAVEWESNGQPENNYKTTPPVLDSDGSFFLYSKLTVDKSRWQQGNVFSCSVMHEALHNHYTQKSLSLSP
light: B1 light
notes: as for B3
As to B4, the figures for the Kd in [13], in test [14] and in test [15] were 3.6 µM, 0.21 µM and 2.3 µM, respectively.

B5: MS_M103205H707-SG1/M103202L802-SK1 (antibody, human IgG1, kappa, V domains shown)
VH: QVTLKESGPVLVKPTETLTLTCTVSGIDLSHYDISWVRQAPGKGLEWVGIISYAGSTYYASWAKGRLTISKDTSKNQVVLTMTNMDPVDTATYYCARGVPAYSHGGDLWGQGTLVTVSS
VL: DIVMTQSPATLSLSPGERATLSCTSSQSVYHDNWLSWFQQKPGQPPKLLIYWASTLAYGVPSRFSGSGSGTDFTLTISSLQPEDAATYYCAGGYGGGLYAFGQGTKVEIKR
notes: also called MS1032LO04-SG1
Regarding B5, the values for the kon in [16] and in [17] were 1.54e+06 M⁻¹ s⁻¹ and 781000 M⁻¹ s⁻¹, respectively.
